Laboratory results reported in article PMC3717276, “Optimization and validation of mitochondria-based functional assay as a useful tool to identify BH3-like molecules selectively targeting anti-apoptotic Bcl-2 proteins” (BMC Biotechnology, 2013).

How the values were obtained:
[1] = target: Human Bcl-2 protein (isoform 2 construct), N-terminal 6xHis tagged recombinant protein (human); experiment: fluorescence polarisation; competition: Mcl-1 (20 nM) or Bcl-2 (40 nM) pre-incubated with FAM-Bid (2 nM and 2.5 nM), tested BH3 peptide added, 2-3 h; 100 mM potassium phosphate, pH 7.5, 100 ug/ml bovine gamma globulin, 0.02% sodium azide; Ki calculated from IC50
[2] = target: Human Bcl-2 protein (isoform 2 construct), N-terminal 6xHis tagged recombinant protein (human); experiment: SPR; competitive solution binding: protein (20 nM) pre-incubated with tested BH3 peptide for at least 30 min, injected over immobilised biotin-Bim BH3 peptide; response at 30 s of dissociation

Ki [1] [nM] | IC50 [2] [nM] | Binder
7.1 | 4.37 | NLWAAQRYGRELRRMSDEFVDSFKKG [Bad BH3 peptide (residues 103-128)]
> 10000 | > 30000 | PAELEVECATQLRRFGDKLNFRQKLL [Noxa BH3 peptide (residues 18-43)]
